Data from PMC11605450, “Azotobacter vinelandii scaffold protein NifU transfers iron to NifQ as part of the iron-molybdenum cofactor biosynthesis pathway for nitrogenase” (The Journal of Biological Chemistry, 2024).
Values belong to the molecule of their own block, whether it stands above or below them.

Tests used:
[1] = target: apo-NifQH (A. vinelandii NifQ, C-terminal 6xHis, without [Fe-S] cluster) (A. vinelandii) (UniProt P11068); experiment: pull-down; apo-NifQH, AS-NifUS and SNifS (10 nmol of each) incubated together 5 min, anaerobic, buffer W (100 mM Tris-HCl pH 8.0, 150 mM NaCl, 10% glycerol); Ni-NTA agarose column, washes with 5 and 20 mM imidazole, elution with 150 mM imidazole; immunoblots
[2] = target: R-NifUS (A. vinelandii NifU, C-terminal Strep-tag, with in vitro reconstituted [Fe-S] clusters) (A. vinelandii) (UniProt P05340)
Chain of R-NifUS (A. vinelandii NifU, C-terminal Strep-tag, with in vitro reconstituted [Fe-S] clusters) (A. vinelandii) (P05340 whole entry): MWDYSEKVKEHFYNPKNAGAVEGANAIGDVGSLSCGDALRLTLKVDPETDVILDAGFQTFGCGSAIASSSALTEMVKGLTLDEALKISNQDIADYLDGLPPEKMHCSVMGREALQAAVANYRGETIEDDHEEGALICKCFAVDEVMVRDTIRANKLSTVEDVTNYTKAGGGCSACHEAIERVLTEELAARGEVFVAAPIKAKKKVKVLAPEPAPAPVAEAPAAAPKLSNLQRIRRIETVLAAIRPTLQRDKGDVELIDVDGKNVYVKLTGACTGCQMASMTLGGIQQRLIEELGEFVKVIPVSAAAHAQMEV

[3] = target: T1, apo-NifQH (A. vinelandii NifQ, C-terminal 6xHis, without [Fe-S] cluster) (A. vinelandii, UniProt P11068 1-195); experiment: pull-down; 10 nmol of Strep-tagged bait (AS-NifUS or R-IscUS) immobilised on a Streptactin-XT column in anaerobic buffer A (50 mM Tris-HCl pH 8.0, 100 mM NaCl, 10% glycerol), 10 nmol NifQH loaded onto the charged column, washed, eluted with 50 mM biotin; conditions: both partners purified
T1 construct: Purified aerobically to destroy the [Fe-S] clusters; source: E. coli BL21 (DE3), purified (Ni-NTA, aerobic conditions); not shown: His6, C-terminal, kept
T1 sequence (looked up): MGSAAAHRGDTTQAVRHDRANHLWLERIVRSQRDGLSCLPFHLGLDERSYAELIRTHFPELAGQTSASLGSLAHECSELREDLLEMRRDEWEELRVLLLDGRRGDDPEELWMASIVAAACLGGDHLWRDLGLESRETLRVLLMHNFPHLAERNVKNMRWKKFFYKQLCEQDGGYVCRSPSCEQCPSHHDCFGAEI

- percent of the total protein co-eluted [1]: 10%
Molecule: AS-NifUS (as-isolated A. vinelandii NifU, C-terminal Strep-tag) (from UniProt P05340 1-312) (natural protein)

- iron content per monomer of NifQH in the flowthrough of a Strep-tactin column after 5 min incubation of apo-NifQH with R-NifUS (Fe per NifQH monomer (molar ratio)) [2]: 1
Molecule: apo-NifQH (A. vinelandii NifQ, C-terminal 6xHis, without [Fe-S] cluster) (from UniProt P11068 1-195) (natural protein)

- binding result [3]: binds
B1: R-IscUS (A. vinelandii IscU, Strep-tag, with in vitro reconstituted [Fe-S] clusters) (natural protein, UniProt O31270 1-128, looked up)
chain: MAYSDKVIDHYENPRNVGKLDAQDPDVGTGMVGAPACGDVMRLQIKVNEQGIIEDAKFKTYGCGSAIASSSLATEWMKGRTLEEAETIKNTQIAEELALPPVKIHCSVLAEDAIKAAVRDYKHKKGLV
notes: also called R-SIscU; source: E. coli BL21 (DE3), purified (Strep-Tactin XT, anaerobic), [Fe-S] clusters reconstituted in vitro; not shown: Strep-tag, C-terminal, kept
